In article PMC9424959, “Single mutations toggle the substrate selectivity of multifunctional Camptotheca secologanic acid synthases” (The Journal of Biological Chemistry, 2022):

Assays:
CYP72A565 [1] = target: T1, CYP72A565 (Camptotheca acuminata, UniProt A0A4Y5UJ61); experiment: LC-MS of secologanic acid formed, reconstituted with CPR1; assay type: biochemical; conditions: 250 uM substrate, 500 uM NADPH, Camptotheca CPR1, DLPC, 100 mM NaPO4 pH 7.5, 30 °C, 120 min
T1 construct: full-length ORF, C-terminal His6, in pCWori, expressed in E. coli, purified; kinetics with Camptotheca CPR1 and DLPC

CYP72A564 [2] = target: T2, CYP72A564 (Camptotheca acuminata, UniProt A0A7G8Z808); experiment: as above; assay type: biochemical; conditions: 250 uM substrate, 500 uM NADPH, Camptotheca CPR1, DLPC, 100 mM NaPO4 pH 7.5, 30 °C, 120 min
T2 construct: full-length ORF, C-terminal His6, in pCWori, expressed in E. coli, purified; kinetics with Camptotheca CPR1 and DLPC

CYP72A564 [3] = target: T3, CYP72A564 (Camptotheca acuminata, UniProt A0A7G8Z808, H132D); experiment: Type I difference spectral titration; assay type: binding; conditions: read-out: Ks/mM
T3 construct: full-length ORF, C-terminal His6, in pCWori, expressed in E. coli, purified; kinetics with Camptotheca CPR1 and DLPC
Text: (§1) Type I difference spectral titration on CYP72A564

CYP72A564 [4] = target: T4, CYP72A564 (Camptotheca acuminata, UniProt A0A7G8Z808, H131F); experiment: Type I difference spectral titration; assay type: binding; conditions: read-out: Ks/mM
T4 construct: full-length ORF, C-terminal His6, in pCWori, expressed in E. coli, purified; kinetics with Camptotheca CPR1 and DLPC
Text: as §1

CYP72A565 [5] = target: T5, CYP72A565 (Camptotheca acuminata, UniProt A0A4Y5UJ61, K270T); experiment: Type I difference spectral titration; assay type: binding; conditions: read-out: Ks/mM
T5 construct: full-length ORF, C-terminal His6, in pCWori, expressed in E. coli, purified; kinetics with Camptotheca CPR1 and DLPC
Text: (§2) Type I difference spectral titration on CYP72A565

CYP72A565 [6] = target: T6, CYP72A565 (Camptotheca acuminata, UniProt A0A4Y5UJ61, H131F/H132D); experiment: Type I difference spectral titration; assay type: binding; conditions: read-out: Ks/mM
T6 construct: full-length ORF, C-terminal His6, in pCWori, expressed in E. coli, purified; kinetics with Camptotheca CPR1 and DLPC
Text: as §2

CYP72A565 [7] = target: T7, CYP72A565 (Camptotheca acuminata, UniProt A0A4Y5UJ61, H131F); experiment: Type I difference spectral titration; assay type: binding; conditions: read-out: Ks/mM
T7 construct: full-length ORF, C-terminal His6, in pCWori, expressed in E. coli, purified; kinetics with Camptotheca CPR1 and DLPC
Text: as §2

[8] = target: SLS, SLAS common ancestor (node 34) (synthetic construct); experiment: Type I difference spectral titration; assay type: binding; conditions: read-out: Ks/mM
Text: Type I difference spectral titration on SLS, SLAS common ancestor (node 34)

CYP72A564 [9] = target: T2, CYP72A564; experiment: LC-MS of secologanin formed, reconstituted with CPR1; assay type: biochemical; conditions: 250 uM substrate, 500 uM NADPH, Camptotheca CPR1, DLPC, 100 mM NaPO4 pH 7.5, 30 °C, 120 min
CYP72A565 [10] = target: T1, CYP72A565; experiment: as above; assay type: biochemical; conditions: 250 uM substrate, 500 uM NADPH, Camptotheca CPR1, DLPC, 100 mM NaPO4 pH 7.5, 30 °C, 120 min
purified protein [11] = substrate: COC(=O)C1=CO[C@@H](O[C@@H]2O[C@H](CO)[C@@H](O)[C@H](O)[C@H]2O)[C@@H]2[C@@H](C)[C@@H](O)C[C@H]12; experiment: purified protein; assay type: biochemical, Camptotheca acuminata; conditions: ~0.8 mM NADPH, Camptotheca CPR1, 60 uM DLPC, 100 mM NaPO4 pH 7.5, 30 °C
purified protein [12] = substrate: C[C@@H]1[C@H]2[C@H](O[C@@H]3O[C@H](CO)[C@@H](O)[C@H](O)[C@H]3O)OC=C(C(=O)O)[C@H]2C[C@@H]1O; experiment: purified protein; assay type: biochemical, Camptotheca acuminata; conditions: ~0.8 mM NADPH, Camptotheca CPR1, 60 uM DLPC, 100 mM NaPO4 pH 7.5, 30 °C

T1 sequence (A0A4Y5UJ61 entry or part of it): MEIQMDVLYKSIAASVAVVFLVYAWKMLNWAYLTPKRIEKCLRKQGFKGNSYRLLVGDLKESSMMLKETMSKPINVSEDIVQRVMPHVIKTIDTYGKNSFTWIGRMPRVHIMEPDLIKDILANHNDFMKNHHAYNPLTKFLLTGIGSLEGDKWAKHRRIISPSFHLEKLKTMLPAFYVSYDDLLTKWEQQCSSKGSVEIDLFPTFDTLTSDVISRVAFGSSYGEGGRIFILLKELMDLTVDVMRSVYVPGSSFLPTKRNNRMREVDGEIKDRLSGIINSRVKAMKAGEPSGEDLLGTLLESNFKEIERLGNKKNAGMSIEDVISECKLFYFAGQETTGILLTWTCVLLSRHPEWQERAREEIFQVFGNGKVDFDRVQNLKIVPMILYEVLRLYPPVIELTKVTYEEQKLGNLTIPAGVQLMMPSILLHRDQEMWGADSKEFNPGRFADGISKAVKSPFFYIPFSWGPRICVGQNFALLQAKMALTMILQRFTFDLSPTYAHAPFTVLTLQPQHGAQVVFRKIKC
T2 sequence (A0A7G8Z808 entry or part of it): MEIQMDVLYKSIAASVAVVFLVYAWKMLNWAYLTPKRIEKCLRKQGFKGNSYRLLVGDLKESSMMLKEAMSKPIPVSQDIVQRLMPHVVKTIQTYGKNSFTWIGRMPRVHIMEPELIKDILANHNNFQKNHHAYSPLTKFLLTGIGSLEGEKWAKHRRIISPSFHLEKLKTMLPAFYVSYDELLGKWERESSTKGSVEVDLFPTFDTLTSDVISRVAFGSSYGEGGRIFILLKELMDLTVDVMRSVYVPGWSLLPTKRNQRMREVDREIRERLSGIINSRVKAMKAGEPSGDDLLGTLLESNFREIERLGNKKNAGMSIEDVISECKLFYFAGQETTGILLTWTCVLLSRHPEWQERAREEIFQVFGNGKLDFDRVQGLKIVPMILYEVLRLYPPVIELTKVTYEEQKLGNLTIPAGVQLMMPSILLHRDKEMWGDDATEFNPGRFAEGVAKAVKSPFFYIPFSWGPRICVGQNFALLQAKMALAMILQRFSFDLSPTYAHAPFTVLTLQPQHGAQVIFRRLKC
T5 sequence (A0A4Y5UJ61 entry or part of it K270T): as the sequence (A0A4Y5UJ61 entry or part of it) above, with K270T counted along it

C[C@@H]1[C@H]2[C@H](O[C@@H]3O[C@H](CO)[C@@H](O)[C@H](O)[C@H]3O)OC=C(C(=O)O)[C@H]2C[C@@H]1O [loganic acid]
LC-MS of secologanic acid formed, reconstituted with CPR1 (CYP72A565 [1]): CYP72A564 consistently showed higher SLS and SLAS activity than CYP72A565 | LC-MS of secologanic acid formed, reconstituted with CPR1 (CYP72A564 [2]): CYP72A564 consistently showed higher SLS and SLAS activity than CYP72A565

COC(=O)C1=CO[C@@H](O[C@@H]2O[C@H](CO)[C@@H](O)[C@H](O)[C@H]2O)[C@@H]2[C@@H](C)[C@@H](O)C[C@H]12 [loganin]
Kd (CYP72A564 [3]): 1.19 ± 0.048 mM | Kd (CYP72A564 [4]): 0.0547 ± 0.003 mM | Kd (CYP72A565 [5]): 1.2 ± 0.084 mM | Kd (CYP72A565 [6]): 0.345 ± 0.041 mM | Kd (CYP72A565 [7]): 0.283 ± 0.013 mM | Kd [8]: 2.3 ± 1 mM | LC-MS of secologanin formed, reconstituted with CPR1 (CYP72A564 [9]): CYP72A564 consistently showed higher SLS and SLAS activity than CYP72A565 | LC-MS of secologanin formed, reconstituted with CPR1 (CYP72A565 [10]): CYP72A564 consistently showed higher SLS and SLAS activity than CYP72A565

B1: CYP72A564 (Camptotheca acuminata; H131F) (protein)
chain: MEIQMDVLYKSIAASVAVVFLVYAWKMLNWAYLTPKRIEKCLRKQGFKGNSYRLLVGDLKESSMMLKEAMSKPIPVSQDIVQRLMPHVVKTIQTYGKNSFTWIGRMPRVHIMEPELIKDILANHNNFQKNFHAYSPLTKFLLTGIGSLEGEKWAKHRRIISPSFHLEKLKTMLPAFYVSYDELLGKWERESSTKGSVEVDLFPTFDTLTSDVISRVAFGSSYGEGGRIFILLKELMDLTVDVMRSVYVPGWSLLPTKRNQRMREVDREIRERLSGIINSRVKAMKAGEPSGDDLLGTLLESNFREIERLGNKKNAGMSIEDVISECKLFYFAGQETTGILLTWTCVLLSRHPEWQERAREEIFQVFGNGKLDFDRVQGLKIVPMILYEVLRLYPPVIELTKVTYEEQKLGNLTIPAGVQLMMPSILLHRDKEMWGDDATEFNPGRFAEGVAKAVKSPFFYIPFSWGPRICVGQNFALLQAKMALAMILQRFSFDLSPTYAHAPFTVLTLQPQHGAQVIFRRLKC
notes: full-length ORF, C-terminal His6, in pCWori, expressed in E. coli, purified; kinetics with Camptotheca CPR1 and DLPC
Km (purified protein [11]): 50 ± 10 µM | kcat (purified protein [11]): 0.132 ± 0.00333 s⁻¹ | kcat/Km (purified protein [11]): 2480 ± 300 M⁻¹ s⁻¹

B2: CYP72A564 (Camptotheca acuminata; H132D) (protein)
chain: MEIQMDVLYKSIAASVAVVFLVYAWKMLNWAYLTPKRIEKCLRKQGFKGNSYRLLVGDLKESSMMLKEAMSKPIPVSQDIVQRLMPHVVKTIQTYGKNSFTWIGRMPRVHIMEPELIKDILANHNNFQKNHDAYSPLTKFLLTGIGSLEGEKWAKHRRIISPSFHLEKLKTMLPAFYVSYDELLGKWERESSTKGSVEVDLFPTFDTLTSDVISRVAFGSSYGEGGRIFILLKELMDLTVDVMRSVYVPGWSLLPTKRNQRMREVDREIRERLSGIINSRVKAMKAGEPSGDDLLGTLLESNFREIERLGNKKNAGMSIEDVISECKLFYFAGQETTGILLTWTCVLLSRHPEWQERAREEIFQVFGNGKLDFDRVQGLKIVPMILYEVLRLYPPVIELTKVTYEEQKLGNLTIPAGVQLMMPSILLHRDKEMWGDDATEFNPGRFAEGVAKAVKSPFFYIPFSWGPRICVGQNFALLQAKMALAMILQRFSFDLSPTYAHAPFTVLTLQPQHGAQVIFRRLKC
notes: as for B1
Km (purified protein [11]): 1440 ± 60 µM | kcat (purified protein [11]): 0.228 ± 0.005 s⁻¹ | kcat/Km (purified protein [11]): 158 ± 8.33 M⁻¹ s⁻¹

B3: CYP72A564 (Camptotheca acuminata; R270T) (protein)
chain: MEIQMDVLYKSIAASVAVVFLVYAWKMLNWAYLTPKRIEKCLRKQGFKGNSYRLLVGDLKESSMMLKEAMSKPIPVSQDIVQRLMPHVVKTIQTYGKNSFTWIGRMPRVHIMEPELIKDILANHNNFQKNHHAYSPLTKFLLTGIGSLEGEKWAKHRRIISPSFHLEKLKTMLPAFYVSYDELLGKWERESSTKGSVEVDLFPTFDTLTSDVISRVAFGSSYGEGGRIFILLKELMDLTVDVMRSVYVPGWSLLPTKRNQRMREVDREITERLSGIINSRVKAMKAGEPSGDDLLGTLLESNFREIERLGNKKNAGMSIEDVISECKLFYFAGQETTGILLTWTCVLLSRHPEWQERAREEIFQVFGNGKLDFDRVQGLKIVPMILYEVLRLYPPVIELTKVTYEEQKLGNLTIPAGVQLMMPSILLHRDKEMWGDDATEFNPGRFAEGVAKAVKSPFFYIPFSWGPRICVGQNFALLQAKMALAMILQRFSFDLSPTYAHAPFTVLTLQPQHGAQVIFRRLKC
notes: as for B1
Km (purified protein [12]): 3540 ± 510 µM | kcat (purified protein [12]): 0.333 ± 0.0267 s⁻¹ | kcat/Km (purified protein [12]): 95 ± 15 M⁻¹ s⁻¹

B4: CYP72A565 (Camptotheca acuminata; H131F) (protein)
chain: MEIQMDVLYKSIAASVAVVFLVYAWKMLNWAYLTPKRIEKCLRKQGFKGNSYRLLVGDLKESSMMLKETMSKPINVSEDIVQRVMPHVIKTIDTYGKNSFTWIGRMPRVHIMEPDLIKDILANHNDFMKNFHAYNPLTKFLLTGIGSLEGDKWAKHRRIISPSFHLEKLKTMLPAFYVSYDDLLTKWEQQCSSKGSVEIDLFPTFDTLTSDVISRVAFGSSYGEGGRIFILLKELMDLTVDVMRSVYVPGSSFLPTKRNNRMREVDGEIKDRLSGIINSRVKAMKAGEPSGEDLLGTLLESNFKEIERLGNKKNAGMSIEDVISECKLFYFAGQETTGILLTWTCVLLSRHPEWQERAREEIFQVFGNGKVDFDRVQNLKIVPMILYEVLRLYPPVIELTKVTYEEQKLGNLTIPAGVQLMMPSILLHRDQEMWGADSKEFNPGRFADGISKAVKSPFFYIPFSWGPRICVGQNFALLQAKMALTMILQRFTFDLSPTYAHAPFTVLTLQPQHGAQVVFRKIKC
notes: as for B1
Km (purified protein [11]): 290 ± 80 µM | kcat (purified protein [11]): 0.128 ± 0.01 s⁻¹ | kcat/Km (purified protein [11]): 445 ± 130 M⁻¹ s⁻¹

B5: CYP72A565 (Camptotheca acuminata; H131F/H132D) (protein)
chain: MEIQMDVLYKSIAASVAVVFLVYAWKMLNWAYLTPKRIEKCLRKQGFKGNSYRLLVGDLKESSMMLKETMSKPINVSEDIVQRVMPHVIKTIDTYGKNSFTWIGRMPRVHIMEPDLIKDILANHNDFMKNFDAYNPLTKFLLTGIGSLEGDKWAKHRRIISPSFHLEKLKTMLPAFYVSYDDLLTKWEQQCSSKGSVEIDLFPTFDTLTSDVISRVAFGSSYGEGGRIFILLKELMDLTVDVMRSVYVPGSSFLPTKRNNRMREVDGEIKDRLSGIINSRVKAMKAGEPSGEDLLGTLLESNFKEIERLGNKKNAGMSIEDVISECKLFYFAGQETTGILLTWTCVLLSRHPEWQERAREEIFQVFGNGKVDFDRVQNLKIVPMILYEVLRLYPPVIELTKVTYEEQKLGNLTIPAGVQLMMPSILLHRDQEMWGADSKEFNPGRFADGISKAVKSPFFYIPFSWGPRICVGQNFALLQAKMALTMILQRFTFDLSPTYAHAPFTVLTLQPQHGAQVVFRKIKC
notes: as for B1
Km (purified protein [11]): 1710 ± 100 µM | kcat (purified protein [11]): 0.53 ± 0.0233 s⁻¹ | kcat/Km (purified protein [11]): 280 ± 18.3 M⁻¹ s⁻¹
